According to patent publication US20140161732A1:
Bridge positions count the residues as written; N and C are the ends. Side chains are listed from the residue outwards. * marks the point of attachment. Biotin = O=C1N[C@H]2[C@H](CS[C@H]2CCCCC(=O)*)N1; AEEA = NCCOCCOCC(=O)O

How the values were obtained:
[1] = target: T1, KDR expressed on transiently transfected 293H cells (human), P35968; assay: competition with 125I-VEGF on KDR-transfected 293H cells (mock subtracted), peptide at 30 µM; conditions: remark: other sources report otherwise
T1 sequence (P35968 20-1356): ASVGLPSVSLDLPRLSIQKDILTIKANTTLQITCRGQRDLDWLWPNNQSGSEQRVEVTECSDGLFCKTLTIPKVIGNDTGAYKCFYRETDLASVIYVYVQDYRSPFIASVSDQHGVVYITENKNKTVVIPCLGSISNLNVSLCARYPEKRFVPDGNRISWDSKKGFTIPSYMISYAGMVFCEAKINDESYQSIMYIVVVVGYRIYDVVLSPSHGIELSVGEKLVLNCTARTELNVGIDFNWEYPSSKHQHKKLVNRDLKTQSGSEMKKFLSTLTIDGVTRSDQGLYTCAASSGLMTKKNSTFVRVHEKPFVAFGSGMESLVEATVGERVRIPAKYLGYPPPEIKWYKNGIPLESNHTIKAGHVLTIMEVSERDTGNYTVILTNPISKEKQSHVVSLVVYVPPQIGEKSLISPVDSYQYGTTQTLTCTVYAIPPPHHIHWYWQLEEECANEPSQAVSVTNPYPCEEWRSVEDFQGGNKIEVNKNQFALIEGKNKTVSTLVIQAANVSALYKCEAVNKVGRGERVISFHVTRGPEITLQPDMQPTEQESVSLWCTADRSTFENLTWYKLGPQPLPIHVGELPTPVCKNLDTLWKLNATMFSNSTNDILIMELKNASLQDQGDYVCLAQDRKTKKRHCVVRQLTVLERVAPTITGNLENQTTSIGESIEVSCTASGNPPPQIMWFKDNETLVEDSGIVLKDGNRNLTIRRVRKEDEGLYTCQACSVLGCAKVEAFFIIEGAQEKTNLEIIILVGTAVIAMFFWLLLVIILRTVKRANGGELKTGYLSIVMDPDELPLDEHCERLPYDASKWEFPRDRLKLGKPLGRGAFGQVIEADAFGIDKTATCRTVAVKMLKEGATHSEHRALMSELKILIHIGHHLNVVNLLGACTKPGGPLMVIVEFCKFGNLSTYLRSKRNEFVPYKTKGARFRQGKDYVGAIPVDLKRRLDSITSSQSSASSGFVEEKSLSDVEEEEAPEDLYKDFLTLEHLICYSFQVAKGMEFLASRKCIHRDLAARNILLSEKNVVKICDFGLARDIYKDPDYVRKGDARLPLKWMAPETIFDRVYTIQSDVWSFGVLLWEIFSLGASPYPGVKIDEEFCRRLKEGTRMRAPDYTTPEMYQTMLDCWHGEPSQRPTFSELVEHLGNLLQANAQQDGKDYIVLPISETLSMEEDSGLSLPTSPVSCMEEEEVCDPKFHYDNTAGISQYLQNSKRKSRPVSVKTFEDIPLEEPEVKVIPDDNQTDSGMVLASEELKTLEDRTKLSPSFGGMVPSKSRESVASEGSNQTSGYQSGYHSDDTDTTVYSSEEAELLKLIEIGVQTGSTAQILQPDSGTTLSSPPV

[2] = target: T1, KDR expressed on transiently …; assay: competition with 125I-VEGF on KDR-transfected 293H cells (mock subtracted), peptide at 0.3 µM; conditions: remark: other sources report otherwise

% inhibition of 125I-labeled VEGF binding [1]: 48%
% inhibition of 125I-labeled VEGF binding [2]: 24.4%
B1: biotinylated SEQ ID NO:264 with a JJ spacer (peptide)
peptide: Ac-AGPKWCEEDWYYCMITGTGGGK([AEEA-AEEA-Biotin])-NH2
modifications: disulfide 6-13 (inferred)
